Source: PMC9499513 (Proceedings of the National Academy of Sciences of the …, 2022)

Target: histone H4 (X. laevis, UniProt P62799 1-103)
Assay: cryo-EM structure

B1: IMPORTIN-4 (natural protein)
chain: MESAGLEQLLRELLLPDTERIRRATEQLQIVLRAPAALPALCDLLASAADPQIRQFAAVLTRRRLNTRWRRLAAEQRESLKSLILTALQRETEHCVSLSLAQLSATIFRKEGLEAWPQLLQLLQHSTHSPHSPEREMGLLLLSVVVTSRPEAFQPHHRELLRLLNETLGEVGSPGLLFYSLRTLTTMAPYLSTEDVPLARMLVPKLIMAMQTLIPIDEAKACEALEALDELLESEVPVITPYLSEVLTFCLEVARNVALGNAIRIRILCCLTFLVKVKSKALLKNRLLPPLLHTLFPIVAAEPPPGQLDPEDQDSEEEELEIELMGETPKHFAVQVVDMLALHLPPEKLCPQLMPMLEEALRSESPYQRKAGLLVLAVLSDGAGDHIRQRLLPPLLQIVCKGLEDPSQVVRNAALFALGQFSENLQPHISSYSREVMPLLLAYLKSVPLGHTHHLAKACYALENFVENLGPKVQPYLPELMECMLQLLRNPSSPRAKELAVSALGAIATAAQASLLPYFPAIMEHLREFLLTGREDLQPVQIQSLETLGVLARAVGEPMRPLAEECCQLGLGLCDQVDDPDLRRCTYSLFAALSGLMGEGLAPHLEQITTLMLLSLRSTEGIVPQYDGSSSFLLFDDESDGEEEEELMDEDVEEEDDSEISGYSVENAFFDEKEDTCAAVGEISVNTSVAFLPYMESVFEEVFKLLECPHLNVRKAAHEALGQFCCALHKACQSCPSEPNTAALQAALARVVPSYMQAVNRERERQVVMAVLEALTGVLRSCGTLTLKPPGRLAELCGVLKAVLQRKTACQDTDEEEEEEDDDQAEYDAMLLEHAGEAIPALAAAAGGDSFAPFFAGFLPLLVCKTKQGCTVAEKSFAVGTLAETIQGLGAASAQFVSRLLPVLLSTAQEADPEVRSNAIFGMGVLAEHGGHPAQEHFPKLLGLLFPLLARERHDRVRDNICGALARLLMASPTRKPEPQVLAALLHALPLKEDLEEWVTIGRLFSFLYQSSPDQVIDVAPELLRICSLILADNKIPPDTKAALLLLLTFLAKQHTDSFQAALGSLPVDKAQELQAVLGLS
Does B1 bind?
Result: binds
